Molecular target: 14-3-3 proteins
Experiment: Western blot of purified virions, quantified
Settings: read off a plot

Question: With UL32 (also known as pp150) 3mut as the substance, how does the ratio to parent read?
Answer: 0.48

Question: With UL32 (also known as pp150) 4/5mut as the substance, how does the ratio to parent read?
Answer: 0.02

Question: For UL32 (also known as pp150) 3/4mut, which ratio to parent is on record?
Answer: 0.06

— publication PMC10465357
